The numbers were not newly measured in paper PMC5580472, which cites them from elsewhere.

Usually Kd stands for a measure of binding affinity in units of concentration.

Read-outs that look alike come from different tables or passages of the source.

Data set [1] deals with TNF (Homo sapiens) (UniProt P01375).
For data set [2] the target is unchanged. This is another data set of the same source.

Sequence of TNF (Homo sapiens) (P01375 77-233): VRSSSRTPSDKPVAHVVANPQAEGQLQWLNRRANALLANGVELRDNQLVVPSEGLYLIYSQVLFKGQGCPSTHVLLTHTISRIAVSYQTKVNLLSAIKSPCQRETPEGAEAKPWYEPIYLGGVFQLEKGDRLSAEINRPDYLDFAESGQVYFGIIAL
Sequence of TNF receptor 2 (P20333 23-461): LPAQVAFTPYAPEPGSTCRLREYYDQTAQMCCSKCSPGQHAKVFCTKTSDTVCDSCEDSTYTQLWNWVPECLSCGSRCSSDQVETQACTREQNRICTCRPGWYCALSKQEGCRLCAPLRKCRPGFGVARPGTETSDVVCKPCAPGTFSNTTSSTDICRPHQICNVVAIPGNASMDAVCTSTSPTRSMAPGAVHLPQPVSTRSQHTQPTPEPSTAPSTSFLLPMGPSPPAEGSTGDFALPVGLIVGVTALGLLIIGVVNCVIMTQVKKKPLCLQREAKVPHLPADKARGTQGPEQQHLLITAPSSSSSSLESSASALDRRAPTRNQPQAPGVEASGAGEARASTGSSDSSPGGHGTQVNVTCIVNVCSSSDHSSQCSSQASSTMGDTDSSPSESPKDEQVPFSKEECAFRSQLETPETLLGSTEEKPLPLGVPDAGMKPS
Sequence of CrmB (P0DSV7 23-349): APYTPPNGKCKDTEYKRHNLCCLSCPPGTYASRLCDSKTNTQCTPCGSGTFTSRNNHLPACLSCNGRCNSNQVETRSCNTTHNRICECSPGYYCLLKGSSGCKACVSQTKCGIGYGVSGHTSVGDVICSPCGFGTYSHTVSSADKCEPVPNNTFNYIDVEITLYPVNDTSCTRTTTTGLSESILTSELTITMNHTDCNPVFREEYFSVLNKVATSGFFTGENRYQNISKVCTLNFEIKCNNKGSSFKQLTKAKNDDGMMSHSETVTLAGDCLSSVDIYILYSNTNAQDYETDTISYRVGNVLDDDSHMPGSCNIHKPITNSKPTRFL

TNF receptor 2 (from UniProt P20333): in the data set with TNF (Homo sapiens) [1], the Kd is 0.3 nM. In the case of CrmB (from UniProt P0DSV7), the dissociation constant Kd in the data set with TNF (Homo sapiens) [2] was 0.28 nM.
